Measured values from US20020086983A1.

Key:
[1] = biological target: B42-Mch5b-FDH-A (residues 3-80) (UniProt Q14790); experiment: yeast two-hybrid liquid b-gal assay; four independent experiments
[2] = biological target: B42-Mch5b-FDH (residues 3-177) (UniProt Q14790); experiment: as above
[3] = biological target: B42-Mch5b-FDH-B (residues 102-177) (UniProt Q14790); experiment: as above
B42 = experiment: yeast two-hybrid liquid b-gal assay; activation hybrid alone (background control); four independent experiments

Sequence of B42-Mch5b-FDH-A (residues 3-80) (Q14790 3-80, form in doubt): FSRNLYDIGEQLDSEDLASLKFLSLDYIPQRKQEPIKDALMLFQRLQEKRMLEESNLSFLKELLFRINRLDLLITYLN
Sequence of B42-Mch5b-FDH (residues 3-177) (Q14790 3-177, form in doubt): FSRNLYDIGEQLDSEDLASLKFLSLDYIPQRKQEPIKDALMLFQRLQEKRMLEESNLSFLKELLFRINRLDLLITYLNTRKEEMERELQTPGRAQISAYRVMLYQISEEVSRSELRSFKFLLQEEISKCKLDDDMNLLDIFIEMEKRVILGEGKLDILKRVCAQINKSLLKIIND
Sequence of B42-Mch5b-FDH-B (residues 102-177) (Q14790 102-177, form in doubt): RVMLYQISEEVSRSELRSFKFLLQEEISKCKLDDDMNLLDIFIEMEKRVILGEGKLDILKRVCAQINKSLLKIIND

Liquid assay b-gal activity [1]: 52.7 Miller units
Liquid assay b-gal activity [2]: 300 Miller units
Liquid assay b-gal activity [3]: 728 Miller units
Liquid assay b-gal activity (B42): 23.2 Miller units
Substance: LexA-FLAME-1-FDH (residues 1-160) (from UniProt O15519 1-160)
